Reference: article PMC3411732, “Binding of the Heterogeneous Ribonucleoprotein K (hnRNP K) to the Epstein-Barr Virus Nuclear Antigen 2 (EBNA2) Enhances Viral LMP2A Expression” (PLoS ONE, 2012)

Molecular target: T1, EBNA2-wt, transiently expressed in HEK 293-T cells (Epstein-Barr virus, UniProt P12978 1-487, arginines of the RG-repeat (aa 339–354) symmetrically or asymmetrically di-methylated (SDMA or ADMA))
T1 sequence (looked up): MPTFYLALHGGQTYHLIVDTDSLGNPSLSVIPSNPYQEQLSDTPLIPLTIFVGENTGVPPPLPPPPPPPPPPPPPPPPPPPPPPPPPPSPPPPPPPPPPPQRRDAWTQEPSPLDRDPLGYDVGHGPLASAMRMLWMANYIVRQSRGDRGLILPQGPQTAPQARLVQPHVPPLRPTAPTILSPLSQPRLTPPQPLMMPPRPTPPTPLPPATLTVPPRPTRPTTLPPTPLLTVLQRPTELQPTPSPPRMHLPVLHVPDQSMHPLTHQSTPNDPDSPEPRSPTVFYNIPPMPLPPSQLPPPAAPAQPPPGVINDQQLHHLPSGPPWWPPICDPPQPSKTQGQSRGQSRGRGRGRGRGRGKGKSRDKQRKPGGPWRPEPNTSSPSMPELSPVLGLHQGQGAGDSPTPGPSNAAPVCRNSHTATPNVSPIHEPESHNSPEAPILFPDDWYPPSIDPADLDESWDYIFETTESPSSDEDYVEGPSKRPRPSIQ
Assay: cell-based or functional assay

B1: GFP-hnRNP K (wild type), expressed in 293T cells (natural protein)
chain: not shown
  LMP2A promoter luciferase reporter in DG75 cells; co-expression of hnRNP K-wt (pSG5-HA-hnRNP K) with EBNA2-wt (pSG5-EBNA2): ≤ 3 fold
